Results: patent US20240124881

Target: T1, DHX36 (Mus musculus) (UniProt Q8VHK9)
T1 sequence: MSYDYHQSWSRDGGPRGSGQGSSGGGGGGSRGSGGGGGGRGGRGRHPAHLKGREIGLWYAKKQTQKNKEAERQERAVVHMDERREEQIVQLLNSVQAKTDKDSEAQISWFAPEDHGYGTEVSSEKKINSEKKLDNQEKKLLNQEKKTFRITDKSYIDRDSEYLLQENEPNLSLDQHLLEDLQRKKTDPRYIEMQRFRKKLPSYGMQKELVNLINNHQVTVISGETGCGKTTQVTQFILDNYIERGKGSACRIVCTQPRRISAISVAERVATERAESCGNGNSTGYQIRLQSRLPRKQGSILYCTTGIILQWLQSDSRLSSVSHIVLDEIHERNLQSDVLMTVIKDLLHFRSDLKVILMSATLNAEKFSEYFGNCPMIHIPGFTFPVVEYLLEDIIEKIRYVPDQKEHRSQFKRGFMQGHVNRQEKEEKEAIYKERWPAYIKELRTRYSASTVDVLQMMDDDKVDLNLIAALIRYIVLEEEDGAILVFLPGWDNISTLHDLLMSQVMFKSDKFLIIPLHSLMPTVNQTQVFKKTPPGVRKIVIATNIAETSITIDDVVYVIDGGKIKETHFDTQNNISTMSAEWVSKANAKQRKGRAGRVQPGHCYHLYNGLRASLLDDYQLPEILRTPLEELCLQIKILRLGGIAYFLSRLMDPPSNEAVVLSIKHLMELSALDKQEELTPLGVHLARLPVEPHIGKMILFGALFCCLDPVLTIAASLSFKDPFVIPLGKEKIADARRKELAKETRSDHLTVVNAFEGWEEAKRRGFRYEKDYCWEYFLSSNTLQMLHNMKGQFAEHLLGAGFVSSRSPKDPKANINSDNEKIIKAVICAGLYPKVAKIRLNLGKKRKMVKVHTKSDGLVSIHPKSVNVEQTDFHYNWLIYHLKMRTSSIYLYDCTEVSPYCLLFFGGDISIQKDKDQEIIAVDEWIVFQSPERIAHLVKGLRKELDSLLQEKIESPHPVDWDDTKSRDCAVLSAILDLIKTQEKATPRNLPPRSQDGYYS
Test: pulldown
Details: N2a lysate, mass spectrometry; threshold criterion

Chaserr Exon5-MC
binding signal (fold lower recovery than WT): > 2
